According to PMC10483886 (Molecular cell, 2023):

Molecular target: T1, His-Flag-DBR1 (human, UniProt Q9UK59 1-544)
T1 sequence (looked up): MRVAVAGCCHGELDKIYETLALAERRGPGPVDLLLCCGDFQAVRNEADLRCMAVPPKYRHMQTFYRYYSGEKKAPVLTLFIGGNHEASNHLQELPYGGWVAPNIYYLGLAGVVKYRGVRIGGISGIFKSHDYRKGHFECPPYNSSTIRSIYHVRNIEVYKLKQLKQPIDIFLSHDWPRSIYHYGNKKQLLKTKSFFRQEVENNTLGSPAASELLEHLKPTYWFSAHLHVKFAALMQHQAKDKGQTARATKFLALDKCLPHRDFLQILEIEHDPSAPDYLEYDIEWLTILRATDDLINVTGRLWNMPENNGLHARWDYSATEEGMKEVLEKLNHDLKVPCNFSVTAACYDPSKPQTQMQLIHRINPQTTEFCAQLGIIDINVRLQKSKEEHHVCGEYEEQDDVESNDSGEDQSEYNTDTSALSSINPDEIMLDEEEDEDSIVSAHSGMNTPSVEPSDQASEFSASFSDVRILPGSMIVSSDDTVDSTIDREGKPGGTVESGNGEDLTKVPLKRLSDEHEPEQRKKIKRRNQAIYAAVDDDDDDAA
Assay: pull-down

binding result: binds
B1: GST-TTDN1 (natural protein, human, UniProt Q8TAP9 1-179, looked up)
chain: MQRQNFRPPTPPYPGPGGGGWGSGSSFRGTPGGGGPRPPSPRDGYGSPHHTPPYGPRSRPYGSSHSPRHGGSFPGGRFGSPSPGGYPGSYSRSPAGSQQQFGYSPGQQQTHPQGSPRTSTPFGSGRVREKRMSNELENYFKPSMLEDPWAGLEPVSVVDISQQYSNTQTFTGKKGRYFC
